This data set can be described thus: label from the status in PepcDB records.
Turning to “MSLDGMPAKQQHNNTGESVELHFHYPIKGKQEPKNSHLVVLIEPKIEINKVIPESYQKEFEKSLFLQLSSFLERKGYSVSQFKDASEIPQDIKEKALLVLRMDGNVAILEDIVEESDALSEEKVIDMSSGYLNLNFVEPKSEDIIHSFGIDVSKIKAVIERVELRRTNSGGFVPKTFVHRIKETDHDQAIRKIMNQAYHKVMVHITKELSKKHMEHYEKVSSEMKKRKEGHHHHHH”, the protein production entry was “not failed”.

“MKKKDRYTGHRYAKPNRSSENDIYSNSDRYARTTGNKKYKKRKKKWSAKKKIIVTLCIILGIILMIAGIVFAYIKATLSQLGRVPLPEAPETLGISSEVAEKYKDLDVTNIALFGVDSREDNDIGRSDALMILSIDRVHNKIKLTSIARDTYVTVDGYGQTKINHAYAYEGPELAIKTINENFDMNIQGFVTVNFSQLAEIIDYLGGINIAVTEEEREVANRLIQELGVQCEPITESGESVHLTGDQAVIFARNRDTGGDSERTGRQRKVLSAMFDQAKAIDVTQYPGLINMVLSQSVTSLSDNDMLGIGTWAVTSGATMEQMSLPNENCNSSGEIIDGVWYYVYDLDLATDLLHDFIYEENSAD”: the protein production result is “failed”.

Turning to “RNVWVVAELDEQGVSEASLQMLTPARRIADKLGESVVGVIAGPPGSSQLAVEMVERGADEVIVVEHERLSEYYPDVVGSVIVELSLKYKPSVILFAATARGREMAPYVANTLKTGITADCTDFDVDPKTRDVLLIRPPFSAIMLAYIRTPFRRPQIGTARPNVFPLPERQPGRQGRIVREEVEPPEPMARLVNRV”, the protein production result is reported as “not failed”.

Take “NKDNLDLAGLTSLLSEKIKEFLQEKKMQSFYQQELETVESLQSLASRPVTHSTGSDQVELKDSGTSGVAQRVFKNALQLLQEKGLVFQRDSGSDKLYYVTTKDKDLQ”: the protein production result was “not failed”.

Regarding “MVEIFLRTLPFFVIIGLGFWAGRTRFFTPEATAYLTKFVFFFALSAMLFRFAATLPFAEIFNGQLVMGYLWGTAGVYGIASLVAFLRKLDVPTAAVEAQCAAIGNVGFLGLPMLAMLFGEAAIGPVMLVLSVDLIVFSSLIVILINGGRDGRLSLGTLRLIGMGLLKNPMIVSISAGLIWSSLRLPIPAPLNDFLTILGGAATPGALFAIGASLAGRSAERVQIAAWLSLCKLVIHPILVALAVLWVFPVDAFSASVAIAAAALPVAGNVYMLAAHYGVAPQRASAAILLSTAVSILTVPAFIAWVTSA”, the protein production entry is “failed”.

For the sequence “MTGKKTLSIVGASGYAGGEFLRLALSHPYLEVKQVTSRRFAGEPVHFVHPNLRGRTNLKFVPPEKLEPADILVLALPHGVFAREFDRYSALAPVLVDLSADFRLKDPELYRRYYGEHPRPDLLGRFVYAVPELYREALKGADWIAGAGCNATATLLGLYPLLKAGVLKPTPIFVTLLISTSAGGAEASPASHHPERAGSIRVYKPTGHRHTAEVVENLPGRPEVHLTAIATDRVRGILMTAQCFVQDGWSERDVWQAYREAYAGEPFIRLVKQKKGVHRYPDPRFVQGTNYADIGFELEEDTGRLVVMTAIDNLVKGTAGHALQALNVRMGWPETLGLDFPGLHP”, the protein production entry is “not failed”.

With “MKSVKTLLTRPFNWVVLTFCIIFVGLFIFTFFNAKFYDTPIGQITQINNTQSTQVSDEHHNKDTKHKETLHIHILNGKFEGKTTTITHEYTESQADSEAFSKNDKVLLHVDKNLTTAYITEKKRDSLVVAITGIFLLTVLLVGKKIGLQSILSLALNTCIVLLAIYIHNQSPNISLFGLMSIAIFISTTLTLVLVTGWQWRTLITIISTLLGTFLCVGITQCIIQITDGSGLKFETMSFLTLPPKEVFLASVMIGSLGAVMDVAITIASGMAEILRRTPDISMRRWALAGCNIGQDIMGTMTNILLFSYLSGSLPMLLIYLKNANTITYTISMNWSLEISRAITGGIGIVLTIPITILLMQVWFKLRGVKS”, the protein production entry was “failed”.

Regarding “MLLTIIYIIAITAEAMTGALSAGRRSMDWFGVILIACVTALGGGSVRDVLLGHYPLTWVKHPEYLVLTCCAALFTILIAKWMRHLRNIFLILDALGLIGFTIIGCQIALQMGHGFVVSAVAGVLTGVSGGILRDILCNDVPLVFRRELYASISFVAVICYWLCLNIGMSLELTVIFTLIFGFVLRLIAIYFGLEMPKFIYQEDDADSASSTDKH”, the protein production entry was “failed”.

As to “MELKDYYAILGVQPTDDLKTIKTAYRRLARKYHPDVSKENDAEAKFKDLAEAWEVLKDEQRRAEYDQLWQHRNDPGFGRQRQTHEQSYSQQDFDDIFSSMFGQQAHQRRRQHAARGHDLEIEVAVFLEETLAEQTRTISYNLPVYNVFGMIESETPKTLNVKIPAGVVDGQRIRLKGQGTPGENGGPNGDLWLVIHIAPHPLFDIVGHNLEIVLPLAPWEAALGAKVTVPTLKESILLTVPPGSQAGQRLRIKGKGLVSKTHTGDLFAVIKIVMPTKPDEKARELWQQLAAAEASFDPRKTWGKA”, the protein production result is “not failed”.

Consider “MLIREAKLAGTPEQFAQLDAAIRTAQCVHNRCLRYWRDNAGVSKNDLQKFCAVLAKDAEQPWMGLLNSQARQAAAERTWQSIQSFYRRCKEGAKHKGYPKFKKHSRSVEYKTSGWKLSDDGMSITFTDGFKAGQLELWLDGSARQLILSSKINRVRVVRRADGYYAQFCLDVERQEAGVYSGNVIGLDLGLKYFTKDSNGAEVACPKFFRKGEKRLRRAQRRLSKRFKKGAKPQSKNYHKQRQRIGKVHLKIQRQRKSWAIEQARRVMVSNDIVVYEDLRVPNLVRSRHLAKSIHDAGWTQFTHWLDYYGKLWRKVVVAVNPAYTSQDCSGCGYRVQKSLSTRTHDCPHCGLTICRDQNAALNILKRGLEVVGAEWNNGTAGHAETGSQEQTTGEISTSAEVGQPTSVSAVAEPVRTSREAV”, for which the protein production entry is “failed”.

In the case of “MNFPLVLLILLVVTGGIWLLDYFVLRHKRVSGNTEEPWWVEYPKSFFPIILIVFSLRSFLVEPFKIPSGSMIPTLLIGDFILVNKYTYGIRLPVANLKIIDMNEPQRGEVMVFRFPEDPSIDYIKRVIGVPGDMVTYRNKQLSINDVPVQLEQGGDYKYIDGPAYIYTQRFKENMDGSEHDILINEDMPDIQLSAIHHFPNRENCTFDRTGFSCKVPEGNYFTLGDNRDGSSDSRYWGFVPENHIVGKAFLIWWNFNDLSRIGTLIK”, the protein production entry was “failed”.

Take “MSTTDNAFSATLEPIDTPKTTLKQRWWHIMDNWKVGIVPLPLFLLAGGLIALDCLGGKLPSDIVVMVATLAFFGFACGEFGKRLPVLGKLGAAAICATFIPSALVHYGLLPDVVIESTTKFYKSTNILYLYICCIIVGSIMSMNRTTLIQGFLKIFFPMLCGEVVGMLVGIGVGTLLGMEPFQVFFFIVLPIMAGGVGEGAIPLSMGYAALMHMEQGVALGRVLPMVMLGSLTAIVISGCLNQLGKRFPHLTGEGQLMPNRSHETRSLSESEGVSGKTDVGTLASGALLAVLLYMMGMLGHKLIGLPAPVGMLFLAVLLKLANVVSPRLQEGSQMVYKFFRTAVTYPILFAVGVAITPWQELVNAFTLTNLLVIVSTVSALVATGFLVGKKIGMHPIDVAIVSCCQSGQGGTGDVAILTAGNRMSLMPFAQIATRIGGAINVSLGLLFLSHYLA”: the protein production result is on record as “failed”.

Take “MNLTRLREKILNKSHSAMLIFSDINISYLSTFTGHAATILLTSKGNYLLTDYRYFEQAKTQASHFNVICRDRANQSLASLIEDLLFQDDCQSLSFESEHISVMQWQQIHQQISQLTKLSQIEAVSGAVEALRFIKSTSEISSIEQAAKIADTALAAMLNSVKAGVTERELAIELDYQMAKLGSEEVSFATILLFGERSALPHGIPSDKQLKLGDIILIDFGAVVNGYRSDMTRTFVFGQASAEQKHIYQLVQSAQQAAIDAVYEGVLGSHLYQQSANILLNSEYKKYAGEGLGHGVGLVLHEQPFIGPDCHTTIEKGCVITIEPGIYIPGWGGIRIEDDVVLTDEGLKILTKSPKGLIEL”: the protein production entry was “failed”.

As to “MKIAALYDIHGNYPALKEVLKQVKKLSPDLVVLGGDLIAGPMPLETLSLLKHVSTTFKTVGIMGNNDQDIVDIYAKKRVGLSRKATEQLTWIANQLSYKQVSFLRNLLPSISIGNYFFCHAVKNDNTTVFSPQQNKAYIETLFKGVQESYIICGHTHIQFELSLPNKKIINAGSIGMPFSNQFGAQWLWLDDNRIEYKRTIFNQQAAIQLISQTEYPFKNEFLEHHHHHH”, the protein production entry was “failed”.

Regarding “KIADWLELHPAEKRKPWCVGIPRLAELAWQRVVAQRDTFGEAQLAHRIRDYLPEQGQLFVGNSLVVRLIDALSQLPAGYPVYSNRGASGIDGLLSTAAGVQRASAKSTLAIVGDLSALYDLNALALLRQVSAPFVLIVVNNNGGQIFSLLPTPQSKRERFYLMPQNVHFDHAAAMFNLRYHRPENWEELESALAGAWRTPATTVIELVVNDTDGAQTLQQLLAQVSHL”, the protein production result is given as “failed”.

The record behind these values is a protein production outcome set (Wang et al. 2014).
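Note: failed if final PepcDB status was selected cloned or expressed and not failed if soluble or beyond.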
